# US20060286032A1, “A radiosotope-chitosan complex for treatment of prostate cancer” (priority 2003, published 2006)
# Legend:
# [1] = Whole-body autoradiography after injection of 25 μl or 50 μl complex solution into the prostate gland; format: in vivo, male SD rats
# Protocol: After one week acclimation, male SD rats were anesthetized with diethylether, and an about 2-cm midline incision was made in the lower abdomen of the pubis. After the prostate gland was exposed along with the bladder, 25 μl and 50 μl (each about 100 μCi) of the complex solution prepared in Example 2 were individually administered to the prostate gland using a syringe. After the rats were sacrificed 0.5 hr and 6 hrs after administration, cryosections were prepared, and whole-body autoradiography was carried out to measure radioactive concentrations in the liver, spleen, kidney, the end region of the femur, spine and administration sites. The measured radioactive concentrations (% ID/g) in various organs after injection of the complex solution are given in Table 1, below.
# Numerals of Table 1 indicate mean+standard deviation (n=3).
# [2] = Radioactive concentrations in collected organs and tissues by liquid scintillation counter after injection into the prostate gland; format: in vivo, SD rats; details: for Administered radioactivity retained in the prostate gland: until 144 hrs after administration
# Protocol: After the complex solution was administered, accurate radioactive concentrations were measured in various organs. 25 μl of the complex solution as a test drug were administered to the prostate gland in the abdominal region of SD rats, which was equal to about 100 μCi. After 0.5, 2, 6, 24, 72 and 144 hrs, the rats were anesthetized with diethylether and exsanguinated by incision of abdominal aorta. Various organs and tissues were collected, which included blood, plasma, brain, thymus, heart, lung, liver, kidney, adrenal gland, spleen, pancreas, testes, prostate gland (including an administration site), seminal vesicle, epididymis, bladder, skeletal muscle, bones, bone marrow, skin, carcass, stomach, small intestine, rectum and large intestine. The collected organs and tissues were weighed, sectioned and homogenized. The whole sample or the supernatant was assayed for radioactivity using a liquid scintillation counter. The measured radioactive concentrations in various organs and tissues according to the time are given in Table 3 (% ID/g) and Table 4 (% of dose).
# [3] = Cumulative urinary and fecal excretion of radioactivity for 72 hrs after injection into the prostate gland; format: in vivo, SD rats; details: for Radioactivity remaining in Carcass / Radioactivity remaining in Prostate gland: 72 hr; for Total recovery rate: 72 hrs
# Protocol: After the complex solution was administered to the prostate gland, cumulative urinary and fecal excretions of radioactivity were examined to investigate the amount of excreted ^166Ho. 25 μl of the test drug was administered to the prostate gland of SD rats, which was equal to about 100 μCi. The amount of radioactivity excreted for 72 hrs was measured. The rats were kept in metabolic cages made of a stainless material. Urine and feces were collected, and, 72 hrs after administration, the rats were sacrificed with diethylether. Radioactivity remaining in the carcass and the prostate gland was also measured.
# [4] = Histopathological examination of organs of rats of the orthotopic model (hematoxylin and eosin); format: in vivo, noble rats; details: for Histopathological changes in organs other than the tumor tissue (heart, lung, liver, kidney, spleen, testes, epididymis, seminal vesicle, bladder, rectum): last day of the test
# Description: From all rats tested in Experimental Example 7, which were sacrificed on the last day of the test, the heart, lung, liver, kidney, spleen, testes, epididymis, seminal vesicle, bladder, rectum and tumor tissues were excised, embedded in paraffin according to general tissue processing, and sectioned into a thickness of 3 μm. The tissue sections were subjected to double staining with hematoxylin and eosin and histopathologically examined.
# [5] = listed as radioisotope-chitosan complex
substance,measurement,setting,value
Holmium-166 (^166Ho)-Chitosan Complex [complex solution],"Radioactive concentration, Administration site","[1]; 25 μl administration, 30 min",4258 ± 732.9 % ID/g
same,"Radioactive concentration, End region of femur","[1]; 25 μl administration, 30 min",0.05 ± 0.030 % ID/g
same,"Radioactive concentration, Spine","[1]; 25 μl administration, 30 min",0.02 ± 0.009 % ID/g
same,"Radioactive concentration, Administration site","[1]; 25 μl administration, 6 hrs",4478 ± 1212.4 % ID/g
same,"Radioactive concentration, End region of femur","[1]; 25 μl administration, 6 hrs",0.16 ± 0.047 % ID/g
same,"Radioactive concentration, Kidney","[1]; 25 μl administration, 6 hrs",0.01 ± 0.002 % ID/g
same,"Radioactive concentration, Liver","[1]; 25 μl administration, 6 hrs",0.04 ± 0.015 % ID/g
same,"Radioactive concentration, Spine","[1]; 25 μl administration, 6 hrs",0.04 ± 0.011 % ID/g
same,"Radioactive concentration, Spleen","[1]; 25 μl administration, 6 hrs",0.03 ± 0.007 % ID/g
same,"Radioactive concentration, Administration site","[1]; 50 μl administration, 30 min",3196 ± 212.5 % ID/g
same,"Radioactive concentration, End region of femur","[1]; 50 μl administration, 30 min",0.05 ± 0.030 % ID/g
same,"Radioactive concentration, Kidney","[1]; 50 μl administration, 30 min",0.02 ± 0.011 % ID/g
same,"Radioactive concentration, Liver","[1]; 50 μl administration, 30 min",0.01 ± 0.007 % ID/g
same,"Radioactive concentration, Spine","[1]; 50 μl administration, 30 min",0.02 ± 0.007 % ID/g
same,"Radioactive concentration, Administration site","[1]; 50 μl administration, 6 hrs",3054 ± 1873.0 % ID/g
same,"Radioactive concentration, End region of femur","[1]; 50 μl administration, 6 hrs",0.10 ± 0.065 % ID/g
same,"Radioactive concentration, Kidney","[1]; 50 μl administration, 6 hrs",0.01 ± 0.001 % ID/g
same,"Radioactive concentration, Liver","[1]; 50 μl administration, 6 hrs",0.03 ± 0.008 % ID/g
same,"Radioactive concentration, Spine","[1]; 50 μl administration, 6 hrs",0.04 ± 0.018 % ID/g
same,"Radioactive concentration, Spleen","[1]; 50 μl administration, 6 hrs",0.02 ± 0.014 % ID/g
same,Radioactivity detected in the administration site,[1]; 6 hrs after administration,over 90%
same,"Radioactivity in major organs including the liver, spleen and kidney",[1]; 6 hrs after administration,no radioactivity was detected
same,"Radioactivity in major organs including the liver, spleen and kidney","[1]; 6 hrs after administration, listed as radioisotope-chitosan complex",rarely detected
same,"Radioactive concentration, Blood",[2]; 30 min after injection,26 ± 10 % ID/g ×10^−4
same,"Radioactive concentration, Bones",[2]; 30 min after injection,71 ± 55 % ID/g ×10^−4
same,"Radioactive concentration, Plasma",[2]; 30 min after injection,44 ± 16 % ID/g ×10^−4
same,"Radioactive concentration, Blood",[2]; 2 hrs after injection,19 ± 9 % ID/g ×10^−4
same,"Radioactive concentration, Bones",[2]; 2 hrs after injection,189 ± 79 % ID/g ×10^−4
same,"Radioactive concentration, Plasma",[2]; 2 hrs after injection,32 ± 11 % ID/g ×10^−4
same,"Radioactive concentration, Bone marrow",[2]; 6 hrs after injection,17 % ID/g ×10^−4
same,"Radioactive concentration, Bones",[2]; 6 hrs after injection,185 ± 107 % ID/g ×10^−4
same,"Radioactive concentration, Bone marrow",[2]; 24 hrs after injection,32 ± 4 % ID/g ×10^−4
same,"Radioactive concentration, Bones",[2]; 24 hrs after injection,711 ± 413 % ID/g ×10^−4
same,"Radioactive concentration in other tissues (other than prostate gland, carcass, liver)",[2]; 72 hrs after administration,less than 0.1%
same,"Radioactive concentration, Bone marrow",[2]; 72 hrs after injection,109 ± 40 % ID/g ×10^−4
same,"Radioactive concentration, Bones",[2]; 72 hrs after injection,2343 ± 827 % ID/g ×10^−4
same,"Radioactive concentration, Bones",[2]; 144 hrs after injection,1708 ± 506 % ID/g ×10^−4
same,"Radioactivity in major organs (brain, thymus, heart, lung, adrenal gland, spleen) and adjacent organs (bladder, rectum, testes, epididymis)","[2]; rat, in vivo",rarely detected
same,Administered radioactivity retained in the prostate gland,[2],over 98%
same,Administered radioactivity retained in the prostate gland,[2]; [5],more than 98%
same,"Cumulative excretion, Urine","[3]; 0-3 hr, animal 1",0.03 % of dose
same,"Cumulative excretion, Urine","[3]; 0-3 hr, animal 2",0.03 % of dose
same,"Cumulative excretion, Urine","[3]; 0-3 hr, animal 3",0.04 % of dose
same,"Cumulative excretion, Urine","[3]; 0-6 hr, animal 1",0.04 % of dose
same,"Cumulative excretion, Urine","[3]; 0-6 hr, animal 2",0.04 % of dose
same,"Cumulative excretion, Urine","[3]; 0-6 hr, animal 3",0.05 % of dose
same,"Cumulative excretion, Urine","[3]; 0-24 hr, animal 1",0.11 % of dose
same,"Cumulative excretion, Urine","[3]; 0-24 hr, animal 2",0.13 % of dose
same,"Cumulative excretion, Urine","[3]; 0-24 hr, animal 3",0.17 % of dose
same,"Cumulative excretion, Feces","[3]; 0-72 hr, Mean",0.11 % of dose
same,"Cumulative excretion, Urine","[3]; 0-72 hr, Mean",0.35 % of dose
same,"Cumulative excretion, Feces","[3]; 0-72 hr, animal 3",0.11 % of dose
same,Radioactivity remaining in Carcass,[3]; Mean,2.67 % of dose
same,Radioactivity remaining in Prostate gland,[3]; Mean,99.19 % of dose
same,Radioactivity remaining in Carcass,[3]; animal 1,2.32 % of dose
same,Radioactivity remaining in Prostate gland,[3]; animal 1,98.84 % of dose
same,Radioactivity remaining in Carcass,[3]; animal 2,3.27 % of dose
same,Radioactivity remaining in Prostate gland,[3]; animal 2,96.79 % of dose
same,Radioactivity remaining in Carcass,[3]; animal 3,2.42 % of dose
same,Radioactivity remaining in Prostate gland,[3]; animal 3,101.94 % of dose
same,Total recovery rate,[3]; Mean,99.65%
same,Total recovery rate,[3]; animal 1,99.23%
same,Total recovery rate,[3]; animal 2,97.27%
same,Total recovery rate,[3]; animal 3,102.46%
same,"Histopathological changes in organs other than the tumor tissue (heart, lung, liver, kidney, spleen, testes, epididymis, seminal vesicle, bladder, rectum)",[4]; listed as present complex solution,no abnormalities in adjacent organs were found
same,"Histopathological changes in organs other than the tumor tissue (heart, lung, liver, kidney, spleen, testes, epididymis, seminal vesicle, bladder, rectum)",[4]; [5],particular histopathological changes are not found
same,Cellularity of the bone marrow and peripheral blood,"[4]; rat, in vivo",not reduced
